Source: publication PMC5519370

Biological target: TgSPT1 Δ158 (Toxoplasma gondii serine palmitoyltransferase 1 with an N-terminal deletion of 158 amino acids) (Toxoplasma gondii)
Assay: SAXS (small-angle X-ray scattering); size exclusion chromatography HPLC mode, Beamline B21 Diamond Light Source; sample concentrated to ~5 mg/ml; Porod volume 150387 Å^3 equivalent to 94 kDa; ab initio envelope compared with a homodimeric homology model

TgSPT1 Δ158 (Toxoplasma gondii serine palmitoyltransferase 1 with an N-terminal deletion of 158 amino acids) (enzyme)
stoichiometry N: 2
